Experimental data published in patent publication US20140087993A1 (TUFTS MEDICAL CENTER, published 2014).
* marks the point of attachment. Palmitoyl = CCCCCCCCCCCCCCCC(=O)*

T1: protease-activated receptor 1 (PAR1), on cells (human, UniProt P25116 42-425)
T1 sequence (looked up): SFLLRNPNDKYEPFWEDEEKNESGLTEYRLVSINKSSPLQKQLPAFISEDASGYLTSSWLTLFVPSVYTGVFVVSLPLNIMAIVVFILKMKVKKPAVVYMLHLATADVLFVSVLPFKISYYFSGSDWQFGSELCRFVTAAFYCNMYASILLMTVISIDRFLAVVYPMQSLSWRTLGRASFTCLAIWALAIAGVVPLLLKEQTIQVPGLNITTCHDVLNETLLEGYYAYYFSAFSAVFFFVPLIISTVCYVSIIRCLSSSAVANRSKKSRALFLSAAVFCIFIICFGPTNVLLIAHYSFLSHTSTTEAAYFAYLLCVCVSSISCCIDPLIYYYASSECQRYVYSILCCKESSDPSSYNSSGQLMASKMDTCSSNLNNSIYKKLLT

B1: P2pal-18Q (peptide)
peptide: Palmitoyl-RSSAMDENSEKKRKQAIK-NH2
SMILES: CCCCCCCCCCCCCCCC(=O)N[C@@H](CCCNC(=N)N)C(=O)N[C@@H](CO)C(=O)N[C@@H](CO)C(=O)N[C@@H](C)C(=O)N[C@@H](CCSC)C(=O)N[C@@H](CC(=O)O)C(=O)N[C@@H](CCC(=O)O)C(=O)N[C@@H](CC(N)=O)C(=O)N[C@@H](CO)C(=O)N[C@@H](CCC(=O)O)C(=O)N[C@@H](CCCCN)C(=O)N[C@@H](CCCCN)C(=O)N[C@@H](CCCNC(=N)N)C(=O)N[C@@H](CCCCN)C(=O)N[C@@H](CCC(N)=O)C(=O)N[C@@H](C)C(=O)N[C@H](C(=O)N[C@@H](CCCCN)C(N)=O)[C@@H](C)CC
B2: P2pal-18S pepducin (peptide)
peptide: Palmitoyl-RSSAMDENSEKKRKSAIK-NH2
SMILES: CCCCCCCCCCCCCCCC(=O)N[C@@H](CCCNC(=N)N)C(=O)N[C@@H](CO)C(=O)N[C@@H](CO)C(=O)N[C@@H](C)C(=O)N[C@@H](CCSC)C(=O)N[C@@H](CC(=O)O)C(=O)N[C@@H](CCC(=O)O)C(=O)N[C@@H](CC(N)=O)C(=O)N[C@@H](CO)C(=O)N[C@@H](CCC(=O)O)C(=O)N[C@@H](CCCCN)C(=O)N[C@@H](CCCCN)C(=O)N[C@@H](CCCNC(=N)N)C(=O)N[C@@H](CCCCN)C(=O)N[C@@H](CO)C(=O)N[C@@H](C)C(=O)N[C@H](C(=O)N[C@@H](CCCCN)C(N)=O)[C@@H](C)CC
B3: P1pal-10S (peptide)
peptide: Palmitoyl-NRSKKSSALF-NH2
SMILES: CCCCCCCCCCCCCCCC(=O)N[C@@H](CC(N)=O)C(=O)N[C@@H](CCCNC(=N)N)C(=O)N[C@@H](CO)C(=O)N[C@@H](CCCCN)C(=O)N[C@@H](CCCCN)C(=O)N[C@@H](CO)C(=O)N[C@@H](CO)C(=O)N[C@@H](C)C(=O)N[C@@H](CC(C)C)C(=O)N[C@@H](Cc1ccccc1)C(N)=O
B4: P2pal-14GQ (peptide)
peptide: Palmitoyl-GDENSEKKRKQAIK-NH2
SMILES: CCCCCCCCCCCCCCCC(=O)NCC(=O)N[C@@H](CC(=O)O)C(=O)N[C@@H](CCC(=O)O)C(=O)N[C@@H](CC(N)=O)C(=O)N[C@@H](CO)C(=O)N[C@@H](CCC(=O)O)C(=O)N[C@@H](CCCCN)C(=O)N[C@@H](CCCCN)C(=O)N[C@@H](CCCNC(=N)N)C(=O)N[C@@H](CCCCN)C(=O)N[C@@H](CCC(N)=O)C(=O)N[C@@H](C)C(=O)N[C@H](C(=O)N[C@@H](CCCCN)C(N)=O)[C@@H](C)CC
B5: P1pal-i1-11 (peptide)
peptide: Palmitoyl-ILKMKVKKPAV-NH2
SMILES: CCCCCCCCCCCCCCCC(=O)N[C@H](C(=O)N[C@@H](CC(C)C)C(=O)N[C@@H](CCCCN)C(=O)N[C@@H](CCSC)C(=O)N[C@@H](CCCCN)C(=O)N[C@H](C(=O)N[C@@H](CCCCN)C(=O)N[C@@H](CCCCN)C(=O)N1CCC[C@H]1C(=O)N[C@@H](C)C(=O)N[C@H](C(N)=O)C(C)C)C(C)C)[C@@H](C)CC

How the values were obtained:
[1] = molecular target: protease-activated receptor-2 (PAR2), wild type, on cells (human, UniProt P55085 37-397); assay: cell-based or functional assay
[2] = molecular target: T1, protease-activated receptor 1 (PAR1), …; assay: cell-based or functional assay

Row | Binder | calcium flux in SW620 cells, antagonist activity against SLIGRL [1] [% inhibition] | IC50, Ca++ mobilization by SFLLRN in human platelets [2] [µM] | IC50, thrombin-induced ERK1/2 phosphorylation in A549 cells [2] [µM] | other results
1 | B1 | 29 | – | – | –
2 | B2 | 77 | – | – | –
3 | Palmitoyl-KKSRALF-NH2 [P1pal-7] | – | 0.55 | 0.2 | –
4 | B3 | – | 0.7 | 0.8 | –
5 | B4 | – | – | – | IC50, calcium flux induced by 30 µM SLIGRL in SW620 cells [1]: 8000 µM
6 | B5 | – | 1.3 | – | –
